Experimental data: PMC11387253, “High sensitive aptasensing chronic myeloid leukemia on circular electrode-modified by single-walled carbon nanotube”

What was measured:
[1] = biological target: CD33 antigen (UniProt P20138 18-259); experiment: electrochemical (current-volt, SWCN-modified IDE); 100 nM CD33; Aptamer immobilized on APTMS-SWCN surface, PEG-COOH blocked; 30 min protein incubation; washes 10 mM PBS pH 7.4; room temperature; 0-2 V in 0.1 V steps
[2] = biological target: T1, CD19 (Homo sapiens, UniProt P15391 20-291); experiment: electrochemical (current-volt, SWCN-modified IDE); 10-100 nM CD19; LOD 10 nM; near saturation above 60 nM; Aptamer immobilized on APTMS-SWCN surface, PEG-COOH blocked; 30 min protein incubation; washes 10 mM PBS pH 7.4; room temperature; 0-2 V in 0.1 V steps; conditions: protein: recombinant
T1 sequence (P15391 20-291): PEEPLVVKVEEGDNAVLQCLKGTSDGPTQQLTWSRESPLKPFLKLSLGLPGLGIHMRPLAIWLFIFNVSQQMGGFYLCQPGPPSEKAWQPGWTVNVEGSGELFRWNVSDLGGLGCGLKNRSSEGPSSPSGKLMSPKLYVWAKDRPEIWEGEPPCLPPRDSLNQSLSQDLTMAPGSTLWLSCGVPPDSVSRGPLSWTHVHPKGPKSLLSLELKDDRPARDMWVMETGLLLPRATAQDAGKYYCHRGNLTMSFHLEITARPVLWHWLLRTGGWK

[3] = biological target: T1, CD19; experiment: electrochemical (current-volt, SWCN-modified IDE); 100 nM CD19; Aptamer immobilized on APTMS-SWCN surface, PEG-COOH blocked; 30 min protein incubation; washes 10 mM PBS pH 7.4; room temperature; 0-2 V in 0.1 V steps; conditions: protein: recombinant

Chain of CD33 antigen (P20138 18-259): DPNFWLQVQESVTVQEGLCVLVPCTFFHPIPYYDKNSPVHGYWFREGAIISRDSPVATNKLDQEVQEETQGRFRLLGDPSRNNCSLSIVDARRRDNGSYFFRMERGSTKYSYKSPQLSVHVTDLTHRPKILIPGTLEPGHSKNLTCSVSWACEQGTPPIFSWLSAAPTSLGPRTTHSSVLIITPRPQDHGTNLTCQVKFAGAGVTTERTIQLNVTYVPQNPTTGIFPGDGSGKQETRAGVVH

B1: CD19 aptamer (ssDNA)
DNA: TGCGTGTGTAGTGTGTCTGTTCTCCTTTTTTTGGTTGCTGCTCTTAGGGATTTGGGCGG
modifications: 5' C6-COOH
binding result [1]: no binding | binding result [2]: binds

B2: complementary aptamer (ssDNA)
DNA: ACGCACACATCACACAGACAAGAGGAAAAAAACCAACGACGAGAATCCCTAAACCCGCC
modifications: 5' C6-COOH
binding result [3]: no binding
